Among the data in article PMC8159254 are stoichiometry N values, retold here.

The assay deals with NfRedAm, reductive aminase from Neosartorya fumigata (Neosartorya fumigata). Kind of assay: SEC-MALS.

As to “NfRedAm, reductive aminase from Neosartorya fumigata (enzyme)”, the stoichiometry N was found to be 2.
